Measured values taken from patent US20240287154A1, “MC3R AGONIST PEPTIDES” (The Regents of the University of Michigan, priority 2021, published 2024).
Non-standard residues stand in square brackets, D forms with d. Phe(4-I) = N[C@@H](Cc1ccc(I)cc1)C(=O)O; NMeY = CN[C@@H](Cc1ccc(O)cc1)C(=O)O; Nle = CCCC[C@H](N)C(=O)O; Aib = CC(C)(N)C(=O)O

Molecular target: human MC3R (human, UniProt P41968 1-323)
Assay: cell-based or functional assay

Chain of human MC3R (P41968 whole entry): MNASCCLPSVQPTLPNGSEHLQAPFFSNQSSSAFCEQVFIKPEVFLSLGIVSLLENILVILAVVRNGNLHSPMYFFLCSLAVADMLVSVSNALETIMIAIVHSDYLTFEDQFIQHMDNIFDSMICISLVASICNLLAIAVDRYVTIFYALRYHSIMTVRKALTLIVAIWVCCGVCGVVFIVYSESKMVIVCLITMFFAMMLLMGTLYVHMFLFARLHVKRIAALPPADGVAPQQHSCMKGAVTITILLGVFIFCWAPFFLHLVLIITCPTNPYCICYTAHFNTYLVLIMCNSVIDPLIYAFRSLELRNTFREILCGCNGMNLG

Binder	MC3R cAMP (EC50) [nM]	MC3R selectivity (relative to MC4R)
H-YV[Nle][Aib]HFR[dW]D-NH2 (SMILES CCCC[C@H](NC(=O)[C@@H](NC(=O)[C@@H](N)Cc1ccc(O)cc1)C(C)C)C(=O)NC(C)(C)C(=O)N[C@@H](Cc1c[nH]cn1)C(=O)N[C@@H](Cc1ccccc1)C(=O)N[C@@H](CCCNC(=N)N)C(=O)N[C@H](Cc1c[nH]c2ccccc12)C(=O)N[C@@H](CC(=O)O)C(N)=O) [CTX-1130]	26.5	58
YVXAHFRWDRFG (Nle at 3; D-Ala at 4; D-Trp at 8) [CTX-1103]	4.3	229
Ac-[Nle][dA]HFR[dW]DRF-NH2 (SMILES CCCC[C@H](NC(C)=O)C(=O)N[C@H](C)C(=O)N[C@@H](Cc1c[nH]cn1)C(=O)N[C@@H](Cc1ccccc1)C(=O)N[C@@H](CCCNC(=N)N)C(=O)N[C@H](Cc1c[nH]c2ccccc12)C(=O)N[C@@H](CC(=O)O)C(=O)N[C@@H](CCCNC(=N)N)C(=O)N[C@@H](Cc1ccccc1)C(N)=O) [CTX-1158]	2.6	535
H-YV[Nle][dA]HFR[dW]D-NH2 (SMILES CCCC[C@H](NC(=O)[C@@H](NC(=O)[C@@H](N)Cc1ccc(O)cc1)C(C)C)C(=O)N[C@H](C)C(=O)N[C@@H](Cc1c[nH]cn1)C(=O)N[C@@H](Cc1ccccc1)C(=O)N[C@@H](CCCNC(=N)N)C(=O)N[C@H](Cc1c[nH]c2ccccc12)C(=O)N[C@@H](CC(=O)O)C(N)=O) [CTX-1108]	12	79
YVXXHFRWDRFG (Nle at 3; Aib at 4; D-Trp at 8) [CTX-1134]	2.5	566
H-[dY]V[Nle][dA]HFR[dW]D-NH2 (SMILES CCCC[C@H](NC(=O)[C@@H](NC(=O)[C@H](N)Cc1ccc(O)cc1)C(C)C)C(=O)N[C@H](C)C(=O)N[C@@H](Cc1c[nH]cn1)C(=O)N[C@@H](Cc1ccccc1)C(=O)N[C@@H](CCCNC(=N)N)C(=O)N[C@H](Cc1c[nH]c2ccccc12)C(=O)N[C@@H](CC(=O)O)C(N)=O) [CTX-1142]	36	54
H-YVEGHFR[dW]DRFG-NH2 (SMILES CC(C)[C@H](NC(=O)[C@@H](N)Cc1ccc(O)cc1)C(=O)N[C@@H](CCC(=O)O)C(=O)NCC(=O)N[C@@H](Cc1c[nH]cn1)C(=O)N[C@@H](Cc1ccccc1)C(=O)N[C@@H](CCCNC(=N)N)C(=O)N[C@H](Cc1c[nH]c2ccccc12)C(=O)N[C@@H](CC(=O)O)C(=O)N[C@@H](CCCNC(=N)N)C(=O)N[C@@H](Cc1ccccc1)C(=O)NCC(N)=O) [CTX-1105]	20	500
YVXAHFRWDRFG (Nle at 3; D-Ala at 4; D-Trp at 8; D-Arg at 10) [CTX-1126]	3	43
H-YV[Nle][dF]HFR[dW]D-NH2 (SMILES CCCC[C@H](NC(=O)[C@@H](NC(=O)[C@@H](N)Cc1ccc(O)cc1)C(C)C)C(=O)N[C@H](Cc1ccccc1)C(=O)N[C@@H](Cc1c[nH]cn1)C(=O)N[C@@H](Cc1ccccc1)C(=O)N[C@@H](CCCNC(=N)N)C(=O)N[C@H](Cc1c[nH]c2ccccc12)C(=O)N[C@@H](CC(=O)O)C(N)=O) [CTX-1132]	3.9	6.8
H-[NMeY]V[Nle][dA]HFR[dW]D-NH2 (SMILES CCCC[C@H](NC(=O)[C@@H](NC(=O)[C@H](Cc1ccc(O)cc1)NC)C(C)C)C(=O)N[C@H](C)C(=O)N[C@@H](Cc1c[nH]cn1)C(=O)N[C@@H](Cc1ccccc1)C(=O)N[C@@H](CCCNC(=N)N)C(=O)N[C@H](Cc1c[nH]c2ccccc12)C(=O)N[C@@H](CC(=O)O)C(N)=O) [CTX-1141]	2.2	55
Ac-[Nle][dA]HFR[dW]DR[dF]-NH2 (SMILES CCCC[C@H](NC(C)=O)C(=O)N[C@H](C)C(=O)N[C@@H](Cc1c[nH]cn1)C(=O)N[C@@H](Cc1ccccc1)C(=O)N[C@@H](CCCNC(=N)N)C(=O)N[C@H](Cc1c[nH]c2ccccc12)C(=O)N[C@@H](CC(=O)O)C(=O)N[C@@H](CCCNC(=N)N)C(=O)N[C@H](Cc1ccccc1)C(N)=O) [CTX-1159]	14.3	213
Ac-[Nle][dA]HFR[dW]DR[dF]G-OH (SMILES CCCC[C@H](NC(C)=O)C(=O)N[C@H](C)C(=O)N[C@@H](Cc1c[nH]cn1)C(=O)N[C@@H](Cc1ccccc1)C(=O)N[C@@H](CCCNC(=N)N)C(=O)N[C@H](Cc1c[nH]c2ccccc12)C(=O)N[C@@H](CC(=O)O)C(=O)N[C@@H](CCCNC(=N)N)C(=O)N[C@H](Cc1ccccc1)C(=O)NCC(=O)O) [CTX-1145]	52.9	535
Ac-[Nle][Aib]HFR[dW]DRFG-OH (SMILES CCCC[C@H](NC(C)=O)C(=O)NC(C)(C)C(=O)N[C@@H](Cc1c[nH]cn1)C(=O)N[C@@H](Cc1ccccc1)C(=O)N[C@@H](CCCNC(=N)N)C(=O)N[C@H](Cc1c[nH]c2ccccc12)C(=O)N[C@@H](CC(=O)O)C(=O)N[C@@H](CCCNC(=N)N)C(=O)N[C@@H](Cc1ccccc1)C(=O)NCC(=O)O) [CTX-1143]	13.4	3540
YVXAHFRWDRFG (Nle at 3; D-Ala at 4; D-Trp at 8; D-Phe at 11) [CTX-1127]	2.5	95

Now from value to binder:

MC3R cAMP (EC50) [nM]	MC3R selectivity (relative to MC4R)	Binder
2.3	173	YVXAHFRWDRFG (Nle at 3; D-Ala at 4; Phe(4-Br) at 6; D-Trp at 8) [CTX-2120]
9.8	1260	Ac-[Nle][dA]HFR[dW]DR[dF]K-OH (SMILES CCCC[C@H](NC(C)=O)C(=O)N[C@H](C)C(=O)N[C@@H](Cc1c[nH]cn1)C(=O)N[C@@H](Cc1ccccc1)C(=O)N[C@@H](CCCNC(=N)N)C(=O)N[C@H](Cc1c[nH]c2ccccc12)C(=O)N[C@@H](CC(=O)O)C(=O)N[C@@H](CCCNC(=N)N)C(=O)N[C@H](Cc1ccccc1)C(=O)N[C@@H](CCCCN)C(=O)O) [CTX-1160]
26	67	Ac-[Nle][dA]H[Phe(4-I)]R[dW]DR-NH2 (SMILES CCCC[C@H](NC(C)=O)C(=O)N[C@H](C)C(=O)N[C@@H](Cc1c[nH]cn1)C(=O)N[C@@H](Cc1ccc(I)cc1)C(=O)N[C@@H](CCCNC(=N)N)C(=O)N[C@H](Cc1c[nH]c2ccccc12)C(=O)N[C@@H](CC(=O)O)C(=O)N[C@@H](CCCNC(=N)N)C(N)=O) [CTX-1170]
1.5	54	H-MGHFR[dW]DRFG-OH (SMILES CSCC[C@H](N)C(=O)NCC(=O)N[C@@H](Cc1c[nH]cn1)C(=O)N[C@@H](Cc1ccccc1)C(=O)N[C@@H](CCCNC(=N)N)C(=O)N[C@H](Cc1c[nH]c2ccccc12)C(=O)N[C@@H](CC(=O)O)C(=O)N[C@@H](CCCNC(=N)N)C(=O)N[C@@H](Cc1ccccc1)C(=O)NCC(=O)O) [CTX-1547]
3.2	324	YVXAHFRWDRFG (Nle at 3; D-Ala at 4; Phe(4-I) at 6; D-Trp at 8) [CTX-2122]
3.8	267	H-YVMGRFR[dW]DRFG-OH (SMILES CSCC[C@H](NC(=O)[C@@H](NC(=O)[C@@H](N)Cc1ccc(O)cc1)C(C)C)C(=O)NCC(=O)N[C@@H](CCCNC(=N)N)C(=O)N[C@@H](Cc1ccccc1)C(=O)N[C@@H](CCCNC(=N)N)C(=O)N[C@H](Cc1c[nH]c2ccccc12)C(=O)N[C@@H](CC(=O)O)C(=O)N[C@@H](CCCNC(=N)N)C(=O)N[C@@H](Cc1ccccc1)C(=O)NCC(=O)O) [CTX-1548]
2.5	93	YVXAHFRWDRFG (Nle at 3; D-Ala at 4; Phe(4-Cl) at 6; D-Trp at 8) [CTX-2121]
4.8	200	Ac-[Nle][dA]H[Phe(4-I)]R[dW]DRF-NH2 (SMILES CCCC[C@H](NC(C)=O)C(=O)N[C@H](C)C(=O)N[C@@H](Cc1c[nH]cn1)C(=O)N[C@@H](Cc1ccc(I)cc1)C(=O)N[C@@H](CCCNC(=N)N)C(=O)N[C@H](Cc1c[nH]c2ccccc12)C(=O)N[C@@H](CC(=O)O)C(=O)N[C@@H](CCCNC(=N)N)C(=O)N[C@@H](Cc1ccccc1)C(N)=O) [CTX-1169]
4.8	937	Ac-[Nle][dA]H[Phe(4-I)]R[dW]DRFG-OH (SMILES CCCC[C@H](NC(C)=O)C(=O)N[C@H](C)C(=O)N[C@@H](Cc1c[nH]cn1)C(=O)N[C@@H](Cc1ccc(I)cc1)C(=O)N[C@@H](CCCNC(=N)N)C(=O)N[C@H](Cc1c[nH]c2ccccc12)C(=O)N[C@@H](CC(=O)O)C(=O)N[C@@H](CCCNC(=N)N)C(=O)N[C@@H](Cc1ccccc1)C(=O)NCC(=O)O) [CTX-1167]
2.4	102	YVXGRFRWDRFG (Nle at 3; D-Trp at 8) [CTX-1549]
